Data reported in patent US20170334976A1 (ANNEXON, published 2017).

Assays:
mouse C1q [1] = target: T1, mouse C1q (mouse, UniProt P14106 26-253); assay: OCTET biosensor, C1q immobilized; mouse C1q
T1 construct: In the CH50 assay the C1q is the one present in C57Bl/6 mouse serum; also called mouse C1q protein
Description: (§1) C1q-antibody interactions were measured using an OCTET™ System according to standard protocols and manufacturer's instructions. Briefly, human and mouse C1q proteins were immobilized separately on a biosensor at three concentrations (3 nM, 1.0 nM, and 0.33 nM).

[2] = target: T2, human complement factor C1q (human, UniProt P02745 23-245; P02746 28-253; P02747 29-245); assay: OCTET biosensor, C1q immobilized; human C1q
T2 construct: The immunogen was C1q purified from human plasma (Complement Technology A-099); In the CH50 assays the C1q is the one present in human serum; Observed mass about 460 kDa; also called human C1q; hC1q
T2 sequence (P02745 23-245 limits assumed, chain 1 of 3): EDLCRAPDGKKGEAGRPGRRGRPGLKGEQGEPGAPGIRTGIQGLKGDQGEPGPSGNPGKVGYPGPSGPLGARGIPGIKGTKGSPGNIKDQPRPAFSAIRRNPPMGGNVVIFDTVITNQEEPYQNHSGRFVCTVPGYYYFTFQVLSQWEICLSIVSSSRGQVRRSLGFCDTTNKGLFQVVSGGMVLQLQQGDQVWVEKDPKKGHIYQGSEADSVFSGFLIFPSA
T2 sequence (P02746 28-253 limits assumed, chain 2 of 3): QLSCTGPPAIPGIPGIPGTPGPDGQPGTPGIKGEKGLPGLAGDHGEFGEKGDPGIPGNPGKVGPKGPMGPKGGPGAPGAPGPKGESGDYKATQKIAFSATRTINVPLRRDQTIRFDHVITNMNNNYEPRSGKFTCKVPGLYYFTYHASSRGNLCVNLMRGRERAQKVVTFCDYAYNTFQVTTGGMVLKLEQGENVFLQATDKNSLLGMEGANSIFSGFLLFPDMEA
T2 sequence (P02747 29-245 limits assumed, chain 3 of 3): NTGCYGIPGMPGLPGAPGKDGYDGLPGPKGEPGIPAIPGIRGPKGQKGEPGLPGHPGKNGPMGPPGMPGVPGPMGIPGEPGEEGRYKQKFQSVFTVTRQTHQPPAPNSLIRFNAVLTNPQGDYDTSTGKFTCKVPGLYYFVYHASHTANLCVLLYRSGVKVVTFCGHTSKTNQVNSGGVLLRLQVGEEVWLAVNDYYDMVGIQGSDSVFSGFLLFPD
Description: as §1

[3] = target: T2, human complement factor C1q; assay: OCTET biosensor, C1q immobilized, full length antibody in solution
Description: as §1

mouse C1q [4] = target: T1, mouse C1q; assay: as above
Description: as §1

T1 sequence (chain, as listed by the source, chain 1 of 3): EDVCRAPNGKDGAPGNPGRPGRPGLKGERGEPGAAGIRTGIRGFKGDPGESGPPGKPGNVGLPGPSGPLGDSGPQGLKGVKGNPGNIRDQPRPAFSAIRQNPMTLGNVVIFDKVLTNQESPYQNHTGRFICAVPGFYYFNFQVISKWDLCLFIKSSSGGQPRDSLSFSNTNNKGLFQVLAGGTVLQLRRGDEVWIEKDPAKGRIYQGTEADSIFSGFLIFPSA
T1 sequence (P14106 26-253, chain 2 of 3): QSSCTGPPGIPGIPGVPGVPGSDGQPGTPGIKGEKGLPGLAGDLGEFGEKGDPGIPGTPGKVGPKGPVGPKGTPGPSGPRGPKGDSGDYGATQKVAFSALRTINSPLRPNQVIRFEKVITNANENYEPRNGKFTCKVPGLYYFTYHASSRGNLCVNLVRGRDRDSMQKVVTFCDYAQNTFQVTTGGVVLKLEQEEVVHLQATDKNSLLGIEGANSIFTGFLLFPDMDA
T1 sequence (chain, as listed by the source, chain 3 of 3): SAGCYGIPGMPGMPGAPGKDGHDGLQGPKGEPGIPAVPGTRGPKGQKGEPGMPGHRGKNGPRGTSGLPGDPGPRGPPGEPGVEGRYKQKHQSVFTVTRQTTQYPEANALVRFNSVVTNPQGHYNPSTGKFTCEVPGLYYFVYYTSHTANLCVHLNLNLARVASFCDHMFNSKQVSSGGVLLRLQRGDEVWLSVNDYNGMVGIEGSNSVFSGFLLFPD

B1: murine anti-human C1q monoclonal antibody M1 (antibody, mouse IgG1, V domains shown)
VH: QVQLQQPGAELVKPGASVKLSCKSSGYHFTSYWMHWVKQRPGQGLEWIGVIHPNSGSINYNEKFESKATLTVDKSSSTAYMQLSSLTSEDSAVYYCAGERDSTEVLPMDYWGQGTSVTVSS
VL: DVQITQSPSYLAASPGETITINCRASKSINKYLAWYQEKPGKTNKLLIYSGSTLQSGIPSRFSGSGSGTDFTLTISSLEPEDFAMYYCQQHNEYPLTFGAGTKLELK
notes: Tested as full length hybridoma antibody; Isotype mouse IgG1, kappa; also called ANN-005; anti-C1q antibody M1
Mouse C1q [1]
  Kd: < 100 pM
[2]
  Kd: < 100 pM
[3]
  Kd: 12.8 pM
Mouse C1q [4]
  Kd: 32.3 pM
